Source: the RNAGym collection of RNA variant scans (doi:10.1073/pnas.2313332121)

B1: TPR t1 (parent)
chain: GACCAAUCUGCCCUCAGAGCUCGAGAACAUCUUCGGAUGCAGAGGAGGCAGGCUUCGGUGGCGCGAUAGCGCCAACGUCCUCAACCUCCAAUGCAUCCCACCACAUGAUGAUGCCUGAAGAGCCUUGGUUUUUUG

Variants of: B1
Assay: polymerase ribozyme fitness, log enrichment relative to wild type (log ratio); higher = more active; in vitro selection for triplet polymerase activity
How it was run: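 Fitness compares each genotype's enrichment to that of the wild type on a logarithmic scale, averaging replicates with inverse-variance weights. The logarithm is base 2. Enrichment came from Illumina sequencing of input and output libraries after one triplicate round of in vitro selection, which included frozen incubation at −7 °C, of PCR-built, transcribed mutant libraries of each subunit of a heterodimeric triplet polymerase ribozyme. Only genotypes with ≥10 input reads and ≥1 read per output were kept.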

| Variant | polymerase ribozyme fitness (log ratio) |
| --- | --- |
| G10A C40A C72U C76A C99A | -7.55 |
| G10A C13U C22G G35C C101A U131G | -4.66 |
| U9G G60U G77A U78C C98A G113C | -5.81 |
| G10A C53A C72U C79A U96G | -1.55 |
| G10A A27C C56A G57A C72U U78G G93C | -4.76 |
| U9G U32A C62G U92G G117C | -5.56 |
| G10A A74U | -0.813 |
| G10A C22G G61A G71C A111U G117A | -7.23 |
| U9G U32C G52C G110C | -5.7 |
| G10A C13A C70U | -1.36 |
| G10A A16U C88A U92C G120U | -1.32 |
| U9G U38C A46C U59C A66U U81A | -5.6 |
| G10A C76U U78A C85A U125G | -1.57 |
| U9G G36C G69U A103C C104U | -2.45 |
| G10A A29C C124U | -0.613 |
| G10A C20U C97G C123U | -3.15 |
| G10A A41C G52U C79U C82G U130G | -2.72 |
| G10A C22A C79A G120U C123G | -5.58 |
| U9G G45A U96G | -0.306 |
| G10A A83C G128U | -2.33 |
| G10A C76U G110C | -5.64 |

| Variant | polymerase ribozyme fitness (log ratio) |
| --- | --- |
| G10A A50G C64U C115G | -3.37 |
| G10A C72U C89G G93U | -2.93 |
| G10A C70A G122A | -1.23 |
| U9G U38G | -0.556 |
| U9G U21C C70U | -1.31 |
| U9G G36U G57U | -0.893 |
| G10A A41C G61U U92A U133C | -0.847 |
| G10A A27G C76U C94A | -5.09 |
| G10A C70U C79U C82G G120C G128U | -2.34 |
| U9G G42U A121C | 0.979 |
| U9G G42C A103G C124A | -6.09 |
| U9G G69U | 0.642 |
| U9G U78C A121U | 1.6 |
| G10A C12G C40A C115U A119G G120C U131A | -0.621 |
| U9G U92G C115G U132C | -0.718 |
| G10A A37U C53A C56G C85U G110U | -2.81 |
| G10A C31U G61C C82A C94G C124U | -5.7 |
| G10A C22G G47A G60A | -3.93 |
| G10A C82A C102U | -1.68 |
| G10A A66G | -1.17 |
| G10A C13A U112A | 0.644 |

| Variant | polymerase ribozyme fitness (log ratio) |
| --- | --- |
| U9G G45U A74C G77A U112C | 0.536 |
| G10A C62U G69A A121U G127U | -1.42 |
| G10A C11A G42U G48A A91G C115U | -2.2 |
| U9G G51A G60A C94A | -3.72 |
| U9G U109A G120C | -4.55 |
| G10A C72A U87G C102U | -1.09 |
| U9G U14C U38G G61U C72U A91U C124U | -3.69 |
| G10A A29U A41C C73U A74U G113U | -3.95 |
| U9G G60C U116A | -1.45 |
| U9G G61A A66U C82A | -1.09 |
| U9G G47A | -1.81 |
| G10A C34U U87G | -3.98 |
| G10A C11U | -0.673 |
| G10A C40A A50U U78A | -4.41 |
| U9G G61A C80A A95C G110U C115A A119C | -7.18 |
| G10A A66G A103U U106A G110U G120A C124A G127A | -6.98 |
| G10A A41C C53G U133C | -1.29 |
| G10A A74G A90U G107U C115U | -7.83 |
| U9G G65C | -5.24 |
| G10A A18U C70G G77A U87A C115A | -7.14 |
| U9G U54C G69A C80U | -2.99 |

| Variant | polymerase ribozyme fitness (log ratio) |
| --- | --- |
| G10A C11G G51U | -2.64 |
| G10A A16U C85G | -3.05 |
| G10A C15G A16G G63A C80U G113C | -4.34 |
| G10A C15G C82A G93A | -4.03 |
| G10A C56U | 0.385 |
| G10A C12A A29G G52U C56A G57C | -2.57 |
| U9G G63U C64A C88A A119G | -6.72 |
| U9G G48U C49U C73G G120U | 0.0812 |
| G10A A24G | -1.53 |
| U9G G47C G60C A83C | -3.63 |
| G10A C40G | -0.282 |
| G10A C13A C64A U112A | -7.66 |
| G10A C70U | -0.224 |
| U9G U14A A46U A68G | -4.4 |
| G10A C56G C82G C115G A121U | -0.467 |
| G10A C72G U96A C104U | -0.61 |
| G10A C72U | -0.532 |
| G10A C72A | 0.427 |
| G10A A37U G71C C104U | -0.936 |
| U9G G61U | 0.804 |
